# Laboratory results: the supplement of paper PMC12855868
# B1: library; numbered along this chain (parent)
# chain: MAAAGGARLLRAASAVLGGPAGRWLHHAGSRAGSSGLLRNRGPGGSAEASRSLSVSARARSSSEDKITVHFINRDGETLTTKGKVGDSLLDVVVENNLDIDGFGACEGTLACSTCHLIFEDHIYEKLDAITDEENDMLDLAYGLTDRSRLGCQICLTKSMDNMTVRVPETVADARQSIDVGKTS
# Variants of: B1
# Test: scaled log2 fold change in cell abundance, elesclomol vs control (0 = silent mean, 1 = nonsense mean) (scaled log2 ratio); higher = higher viability under elesclomol (loss of FDX1 cuproptosis function)
# Details: glucose 10 mM
# [1] = with ABC1 FDX1 KO, elesclomol 5 nM, 14 days
# [2] = with HEK293T FDX1 KO, elesclomol 40 nM, 11 days
# 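Also: variant abundance is its share of total variant reads in each endpoint sample, from next-generation sequencing of the integrated ORF PCR-amplified out of genomic DNA.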
Variant,scaled log2 fold change [1],scaled log2 fold change [2]
M160S,0.278,0.0347
M160T,0.347,0.674
M160V,-0.27,–
M160W,0.366,-0.0391
M160Y,0.274,0.713
D161A,-0.111,–
D161C,0.35,0.607
D161E,-0.0246,0.705
D161F,0.305,0.236
D161G,-0.198,–
D161H,-0.161,-0.464
D161I,0.0246,-0.332
D161K,0.234,0.181
D161L,0.312,0.16
D161M,-0.0698,-0.0785
D161N,0.064,-0.539
D161P,0.586,0.0492
D161Q,0.0687,–
D161R,0.243,0.406
D161S,0.299,-0.0997
D161T,0.262,-0.0378

Variant,scaled log2 fold change [1],scaled log2 fold change [2]
D161V,-0.562,0.103
D161W,0.197,-0.0327
D161Y,0.284,0.145
N162A,0.23,0.844
N162C,-0.275,0.0594
N162D,-0.354,0.0725
N162E,0.0612,0.838
N162F,0.167,-0.244
N162G,-0.601,–
N162H,-0.203,0.208
N162I,-0.0298,-0.611
N162K,-0.0702,0.386
N162L,-0.0365,-0.341
N162M,0.128,-0.13
N162P,0.182,-0.234
N162Q,0.14,-1.17
N162R,0.34,-0.871
N162S,0.162,–
N162T,-0.0302,0.362
N162V,0.0601,0.0858
N162W,0.1,0.831

Variant,scaled log2 fold change [1],scaled log2 fold change [2]
N162Y,0.0965,0.0713
M163A,-0.185,–
M163C,-0.512,0.319
M163D,1.16,0.514
M163E,0.522,0.691
M163F,0.518,-0.42
M163G,0.325,-0.225
M163H,0.707,0.257
M163I,0.122,0.861
M163K,0.823,0.16
M163L,0.385,0.864
M163N,0.51,0.528
M163P,0.859,0.441
M163Q,0.357,-0.237
M163R,0.657,-0.245
M163S,-0.173,0.99
M163T,-0.131,0.00152
M163V,-0.168,0.941
M163W,0.598,0.247
